Data published in CN118388640A (CHENZHOU NO 1 PEOPLES HOSPITAL, dated 2024).

Molecular target: T1, SARS-CoV-2 Omicron BA.1突变株 S蛋白 (Sino Biological，货号:40589-V08B33) (SARS-CoV-2 Omicron BA.1突变株)
T1 construct: also called Omicron BA.1 S蛋白
Assay: ELISA, S protein coated, antibody titrated from 10 μg/mL

B1: 抗新型冠状病毒SARS-CoV-2的广谱抗体(VSM12-37) (antibody, V domains shown)
VH: EVQLVESGGGLVQPGGSLRLSCAVSGFTVSSNYMSWVRQAPGKGLEWVSLIYSGGSTYYADSVKGRFTVSRDRSKNTLYLQMNSLRAEDTALYYCARDNPRVGSNYWGQGTLVTVSS
VL: DIQMTQSPSSLSASVGDRVTITCQASQDINNYLNWYQQKPGKAPKLLIYDASNLEAGVPSRFSGSGSGTDFTFTISSLQPEDIATYYCQQCDNVPLTFGGGTKVEIKR
notes: also called VSM12-37抗体
- EC50: > 5 µg/mL
